Test results published in a protein production outcome set (Wang et al. 2014).

Test: label from the status in PepcDB records

Sequence	protein production
MENWDLSSDEMQDGNAPELDVIEEHNPVTRDDENANPEEVVGDTRSPVQNILGKFEGDINKRLHIKRKRMETYIKDSFKDSNVKLEQLWKTNKQERKKINNKFCEQYITTFQKFDMDVQKFNEEQEKSVNNYQKEQQALKLSKCSQSQTLEAIKDMHENYMEGLMNLETNNYNMLFDVDGELRKEMSVFKKDLMKHTLKYSSSFPSSD	failed
MTTVIVANDLVGFGKVALTSSLLPIMSACQTEVLPLPTVLLSSHTGEFDNIYVRYLTVDMQGFCGQWKRLDFRVDGLVGGYFKSEEELGLVSQCLTKKRFLFLLDPIMGDNGRLYQGFDRDYVEAMKDFCQQADVIIPNLTEAALLTGSPYLEEGSYDMTTIENLLRNLSRLGPRKVILTGISFETEKIGLAYFDKETNQVIYRMRKRYQSHFYGSGDLLTAILSAGYFHNLDFLKVCDLALDFLNKVLLFTLSSGRPLKYGLCYEPLYRLFILEHHHHHH	not failed
MSRYRLREHAWCLRQLNVSNKSFLKRSFLVGLGYTPPIRYFIDIGPLPNWTRKEVNELILGRTRVRSPILKLLIELFVHRICSDPRFQVKSSSVNA	failed
MFKRFVLSLAFLIMAAVVSFQVIFTVPEHPQIITQTGSEITEDIRCIEFSGAKALDDNGELNLLVWNIYKQNRANWQSELELFSADKQLLLLQEASMTDSFKQWLVDGSWVSNQVSAFKALGSGAGVISIAQKQPIKACAYTSKEPWLRLPKSALYSQYRLSNGESLAVINVHAINFTVGTEEYTSQLSALETLLKQHSGPIVFAGDFNSWSEYRITAMKQALREANLREVQFSPDHRTQFITGLPLDHVFYRGLTLKNAKAPQSDASDHNPLLVSFTLND	failed
MIVTLLGTGDSPGTPILNCHCRTCEDARRKGWERKRFSVMVQNNGKTVLIDTSPDLRRQLLDCGVEKVDAVIWTHCHFDHFGGFGEFYRVQNNVKVYSTPQIHEDIGHFMKFMSYKPVEVEAFENFTIAGMDFTLLPVNHPPVSAVGVKVEWKGYKVVVSGDTNVRIPEATLREMQNPDLLIVEALAPTGRFRKHMNAKEALELAKRLNAGKVVLTHLGHFFPPHHLAIKSYPVGEDYQSFSFGEGRLDEFFGDLEHHHHHH	failed
MLSKHYKLKFPGTLAMKGGYLFVFLAAVMWGTLGIFAKFLYGFNLSTYTIVFYRVLFALIFLAVYLKVRGLPLLMSKDRLPFYLGFSFFSIFLFYSLYFYTVKISSVSFAVLMLYTAPVYSLIFGRILFGEKLTPSKLTAVFLVILGVLLLNLDGKLNVSKLALLTGLASGLTYSLYGVFVKFAVRREEPERVLFNVLLIGLLFLLPVTDLRVPTAALPYLLGLAFFPTFLGYILYNTALKTVEVSKASIIATIEPVVAIILAYFIFGEALSLLQYLGASLIIAGAILAKR	failed
MDVHQLTEQALALLLQHTGADGGAILIEVDGEIRVAASQGIGSAHTLANNDRVRSALRTERRHRVQLPEDLVVDGMLAQFRPKEVIIDPVRHKEVVLGAVVLASGQGFSAEDRNRLDVFERGLALALHNALLYDRLQTLAALDPLTGALEHHHHHH	not failed
ISLKYTAARLHEKGVLLEIEDLQVNQFKNVIFEISPTEEVGDFEVKAKFMGVQMETFMLHYQDLLQLQYEGVAVMKLFDRAKVNVNLLIFLLNKKFYGK	not failed
MPQSAPPNTRQAVLWNDVSGKAWVEMQPILDEILAPFERLVVDAGYPREGGNVLDIGCGAGATTLAMARRVGNDGNCVGLDISQPLVALATERTKLGEVANASFEVGDAQTYAFESGHFDAAISRFGVMFFDDPMAAFTNIRKAVRRRGKLAFVAWRSPLENDFMTTAVRAAAPFLPPAPAPDPDAPGQFAFADGAKVRRILEASGWASIEVEQADVPCRIAQRDLMAYATRLGPLGAALREVDRATAERITTVLPAAFAPFVDDGEARFNAACWLVTALA	failed
MVVYGKQKYIMKRCFYMNKKLKTEAVDHLFQAILTLKSTEECYSFFEDVCTVNELLSFSQRYEVAKMLREKRTYLEIADKTGASTATISRVNRSLNYGNDGYDMVFKRLEDQAAEDNEA	failed
VNPLLDSLQPYPFEKLRALFKDVTPNAGLAHISFGIGEPKHPTPALIRDAVVASLGGLSAYPATSGSPALRESIAKWVTQRYNLPPVDPATQVLPVSGSREALFSLAQTVLDPQKNAGGEPAIVLCPNPFYQIYEGAAILAGAQPYFVNSDPARNFACDYSAVPAEIWARTQLLYVCSPGNPTGAVLTLDDWRELFALSDRYGFVIASDECYSEIYFDEAKPPLGGLEAAHKLGRGFERLVMLSSLSKRSNVPGMRSGFVAGDAAILKDFLLYRTYHGAALSTVFQNASIAAWNDEAHVRENRAKYLQKFSTVTPMLAEVLDVRLPDAAFYLWADVSRTGLTDTVFAQRLYADYNVTVLPGSFLARTAHGVNPGRNFVRMALVADVDECTQGAQRIVDFCRALAG	not failed
MAGVCGSKLMMARLVGMPDLFSDSGWGSGELPRALRPGLVHLPRWMGLDQQFAVVQQCREIARSVAGTPLAMHRQQWASGTMSAYLMSLGLHWEYRTYQYVSQWGGVAVPPIPVEFSALAHEVLRAAAGVDDSLAAWVDSYRIDAALVNYYPPGAGMGMHQDAFEDSRAPVVSLSIGDSAVFRAGNGVNRQRPWQDVVLGSGDAVVFGGPSRDMFHSVVRLHAGTAPTRCGVSQGRINLTFRQVKL	failed
MVIETGVWIVLLGATVTAVATGLGALPFLFVRDIGDWWLGVFNAAAGGLMLAASHSLITEGSMLSTGRTLIGILVGLALILGANTFISRGDDHDVAELAGADARKALLILGIMTAHSFAEGVGVGVSYGGGDELGAFITAAIAVHNIPEGLAISLVLVPRGTPLWKAAGWSIFTSLPQPLMAVPAFLFVLVFEPFLPIGFGLAAGAMIWMVFAELIPDALEDVPGPTAGAAVTLAFAALFAFQHFVLHV	failed
MSEREHWQRVYESKPSDAVSWFQAEATLSLDLIRRIGAPREAAIIDVGGGASTLVDGLLAEGFGDLTVLDLSDAALRVARNRLGARGEEVRWIAGDITGVDLPEATYDVWHDRAVFHFLTTAEARRAYVRQVMKAVRHGGHVIVATFAADGPTECSGLPVMRYDADELHAEFGSAFQLTEHRDEHHVTPAGRVQHFVYCHCLKRLLEHHHHHH	failed
MPSDSLRVGVLTGGGDCPGINAALRAVTKSLTLQHDAEVLGFLDGFRGVVDRNVEPLHYRDVSGILTRGGTILGASNKADPFNYLPRGGADVSAQVMRTYRTLDLDALVAIGGDGTMSIAHRLTDLGVDIVGVPKTIDNDLVGTDRTVGFDTAVSTATDAIDRIHTTAQSHHRVMIVETMGRYSGWIALHAGVASGTDVILLPEIEYEVETVADVCRDRERSGQRFTIVAVAEGARRKEGDYVVQERGDEYTDSIRLGGISRVLADQLREHLDTSIRTTVLGHMQRGGSPTAYDRTLATTLGTRAATLVAEGTTGVMVAVQNDAFTQVPLDEIAGKTRTVPLDDPLIASGLDVGTSFGVAVSDLSEAASHSKPASPIQP	failed
MEELSAAEPGPEPGPEPESAPESESEPGPAGAGDAPGDGVIVTRALTKRYRGGQLAVDGLDLTVPAGSVFGFLGPNGSGKTTTIRMLMGLIEPTSGTARVLGRPMPRSARTVLPHIGALIEGPALYGFLSGRDNLLRYDAADPTADPRTRRTRVAATLDRVGLTAAAGKKAKAYSLGMKQRLGLAAALLQPRRLLVLDEPTNGLDPQGMREIRSLVRELASDGTTVFLSSHLLDEIEQVCTHAAVMAQGRLITQGAVADLAAGARGRLVVTTPDVTDAARVLKEQGVADIVVAEDRVTGEPPDGELAELNAALVTAAVRVRGFGVERASLEDAFVALTGEGFDVAGLEHHHHHH	failed
MKILLKSLVISASLCSPFVLANSEAHSDYLKGTAYLNQDNYKEAITWLTSAANNGSIEAQNKIGTIYAKGIGTEANTQLATQYFLKAAANQSSMAYYNLGKIYESEEKYSTSIDWYNKAIEENNSNAMNNLADLYLHGKGLVQNTHQAELLYIQAAELGNATAMRNLGFLYTNNKEVKQDMSKAYFWFNLAAEKDFPDADKYRDYTGKKLSKSKRIKVQNEALEWLEQHNS	failed
MELNAVKSSYARWAPIYDKTFGAITNVGRHAAVDYINAHDATELLEVGVGTGLSLPNYRPGLKVTGIDFSEEMLAKARAKVESLGLGHVQSLRQMDARDLDFADASFDVVAAMHIISVVPEPERVMAEMARVCKPGGLIVITNHFARDSGMLARVERFAAPFANLLGWHPDFEISSVLKQPDLTVIERKSLPPMGMMTFLVLQKCELEHHHHHH	not failed
MSNHSSSIPELSDNGIRYYQTYNESLSLWPVRCKSFYISTRFGQTHVIASGPEDAPPLVLLHGALFSSTMWYPNIADWSSKYRTYAVDIIGDKNKSIPENVSGTRTDYANWLLDVFDNLGIEKSHMIGLSLGGLHTMNFLLRMPERVKSAAILSPAETFLPFHHDFYKYALGLTASNGVETFLNWMMNDQNVLHPIFVKQFKAGVMWQDGSRNPNPNADGFPYVFTDEELRSARVPILLLLGEHEVIYDPHSALHRASSFVPDIEAEVIKNAGHVLSMEQPTYVNERVMRFFNA	not failed
MLNDILTGYGIFILEILTILLLILAVVGLIISYRQHNKSKVGELEIKDLSEEFNEQVRLLRDFNLSEEEQKQRTKAEKKAEKQNAKKRKEKLKKGETLEDEKKACVYVLDFCGDISASETTALREEISAILNVAKSEDEVLLRLESPGGIVHNYGFAASQLSRLKQKGIKLTVAVDKVAASGGYMMACVADKIVSAPFAVIGSIGVVAQIPNVHRLLKKHDVDVDVMTAGEFKRTVTVLGENTEKGKQKFQQELEETHKLFKQFVSQNRPCLDIDKIATGEHWFGQQAIALQLVDEISTSDDLILEKMKEKQVLNVKYRLKKSLIKKFGRQAEESAINIIHRYSTKQSRDFMYLEHHHHHH	failed
MDVPSSWDALRKQARKIEAQLDEQMHSYRRLVSTKALSKSDGNESDLEAGIDLLLRQLQQVNAQMQAWVSSGGSEMVSHTLTRHQEILQDLTQEFYRHRSSLRAKQEHASLLEDFREFDRTRLDLEDGYGSEQALIKEHMGINRNTAQMDGVISQAQATLGTLVFQRSTFGGINSKLSNVASRLPTVNTILAAIKRKKSMDTIILSLVAAVCTFLIFIYWITK	failed
AEICLITGTPGSGKTLKMVSMMANDEMFKPDENGIRRKVFTNIKGLKIPHTYIETDAKKLPKSTDEQLSAHDMYEWIKKPENIGSIVIVDEAQDVWPARSAGSKIPENVQWLNTHRHQGIDIFVLTQGPKLLDQNLRTLVRKHYHIASNKMGMRTLLEWKICADDPVKMASSAFSSIYTLDKKVYDLYESAEVHTVNKVKRSK	not failed
MEKTLETVPLERKKREKEQFRKLFIGGLSFETTEESLRNYYEQWGKLTDCVVMRDPASKRSRGFGFVTFSSMAEVDAAMAARPHSIDGRVVEPKRAVAREESG	not failed
MNHPAHHGPTVTPKRRHPDSTGAAPVGIVIATRNRRASLAVTVRNLLALPERPDVLVVDNASTDDTRAMLARDFPQVRVLPLPYNRGALARTHGVRALDTPYVAFSDDDSWWAPGALGAAARHFDDHPRLGLLSARTLVGPGDAADPLNDLLADSPLGTATDLPGTQVLGFLGCAAVARRTAYLDAGGYHPLLFFGGEETLLAYDLAARGWGVTHCPDVIAHHHPHPRPRTGRPAVVRRNALLTAWLRRPLPHALARTRALAADARRDPHARHALRETLTRLPAALRARRPLPPHVERAARLLDGADGPDGPGGAVSLEHHHHHH	not failed
RSKTVILAKNLPAGTLAAEIQETFSRFGSLGRVLLPEGGITAIVEFLEPLEARKAFRHLAYSKFHHVPLYLEWAPIGVFGAAPQKKDSQHEQPAEKAE	not failed
